The text below walks through data of PMC9100969, “Structure-Guided Engineering of a Family IV Cold-Adapted Esterase Expands Its Substrate Range” (International Journal of Molecular Sciences, 2022).

Holding throughout (test): purified protein
What all share (assay type): biochemical, Sutcliffiella cohnii
Details in all cases: 50 mM Tris-HCl pH 8.0, 20 °C

Substrate in data set [1]: CC(=O)Oc1ccc([N+](=O)[O-])cc1
Substrate in data set [2]: CCCC(=O)Oc1ccc([N+](=O)[O-])cc1
Substrate in data set [3]: CCCCCC(=O)Oc1ccc([N+](=O)[O-])cc1
Substrate in data set [4]: CCCCCCCC(=O)Oc1ccc([N+](=O)[O-])cc1

B1: EstN7 (Sutcliffiella cohnii; W206A) (protein)
chain: MKNRIDPELRAMLDMFPPLNLDDVQATRKAMEEAAQLTELPVDEEVVVSNRMVPGPEDNPYVRVRIYEPKEKIEKLPGLLWIHGGGYVLGAPEGDDLLCQRFVKEANCVVVSVDYRLAPEHPYPAPLEDCYAALQWFAKKVDELGVDASRIGVGGQSAGGGLTAALALLARDRKGPELCFQMPLYPMIDDKNNSPSSLEITGNLIANHDLNEKGWSMYLDGKNGTDDVPVHAAPARATDLTNLPYTYTCVGQLDPFRDETLDYVKRLCQAGVDVEFHLYPGAYHGFETLNPAAAVSQRALAEYVGAVKHVLNREKVVERK
notes: recombinant, purified from E. coli BL21(DE3); dimer; catalytic triad S157, D254, H284
Consider B1, for which, in data set [1], the Km (as a rule, the concentration of substrate that gives half-maximal velocity) came out at 1300 ± 140 µM; the kcat (as a rule, the maximal rate divided by the concentration of active sites) came out at 1.5 ± 0.07 s⁻¹; the kcat/Km (in general, the turnover number divided by the Michaelis constant) is 1190 M⁻¹ s⁻¹. For the same protein, in data set [2], the Km was 1200 ± 550 µM, the kcat was found to be 8 ± 1 s⁻¹ and the kcat/Km stood at 6670 M⁻¹ s⁻¹. Besides, in data set [3], the Km is 1100 ± 70 µM, the kcat turned out to be 3.8 ± 0.07 s⁻¹ and the kcat/Km worked out at 3350 M⁻¹ s⁻¹.

B2: EstN7 (Sutcliffiella cohnii; M187A/N211A) (protein)
chain: MKNRIDPELRAMLDMFPPLNLDDVQATRKAMEEAAQLTELPVDEEVVVSNRMVPGPEDNPYVRVRIYEPKEKIEKLPGLLWIHGGGYVLGAPEGDDLLCQRFVKEANCVVVSVDYRLAPEHPYPAPLEDCYAALQWFAKKVDELGVDASRIGVGGQSAGGGLTAALALLARDRKGPELCFQMPLYPAIDDKNNSPSSLEITGNLIWNHDLAEKGWSMYLDGKNGTDDVPVHAAPARATDLTNLPYTYTCVGQLDPFRDETLDYVKRLCQAGVDVEFHLYPGAYHGFETLNPAAAVSQRALAEYVGAVKHVLNREKVVERK
notes: as for B1
Turning to B2, the Michaelis-Menten constant (Km) came to 1100 ± 70 µM in data set [1], 370 ± 80 µM in data set [2], 1200 ± 10 µM in data set [3] and 950 ± 20 µM in data set [4]. The kcat in data set [1] amounted to 361 ± 0.14 s⁻¹; in data set [2] it was 17.6 ± 2.1 s⁻¹; in data set [3] it was 24.5 ± 0.7 s⁻¹; in data set [4], 0.45 ± 0.02 s⁻¹. Besides, the kcat/Km in data set [1] turned out to be 328000 M⁻¹ s⁻¹; in data set [2], 46800 M⁻¹ s⁻¹; in data set [3], 20400 M⁻¹ s⁻¹; in data set [4], 473 M⁻¹ s⁻¹.

B3: EstN7 (Sutcliffiella cohnii; N211A) (protein)
chain: MKNRIDPELRAMLDMFPPLNLDDVQATRKAMEEAAQLTELPVDEEVVVSNRMVPGPEDNPYVRVRIYEPKEKIEKLPGLLWIHGGGYVLGAPEGDDLLCQRFVKEANCVVVSVDYRLAPEHPYPAPLEDCYAALQWFAKKVDELGVDASRIGVGGQSAGGGLTAALALLARDRKGPELCFQMPLYPMIDDKNNSPSSLEITGNLIWNHDLAEKGWSMYLDGKNGTDDVPVHAAPARATDLTNLPYTYTCVGQLDPFRDETLDYVKRLCQAGVDVEFHLYPGAYHGFETLNPAAAVSQRALAEYVGAVKHVLNREKVVERK
notes: as for B1
For the protein B3, the Michaelis-Menten constant (Km) in data set [1] turned out to be 750 ± 1 µM; in data set [2], 2000 ± 200 µM; in data set [3], 370 ± 50 µM. Besides, the values for the kcat in data set [1], in data set [2] and in data set [3] were 280.5 ± 0.07 s⁻¹, 15 ± 0.5 s⁻¹ and 2.3 ± 0.2 s⁻¹, respectively. Moreover, the kcat/Km was determined as 374000 M⁻¹ s⁻¹ in data set [1], 7500 M⁻¹ s⁻¹ in data set [2] and 6280 M⁻¹ s⁻¹ in data set [3].

B4: EstN7 (Sutcliffiella cohnii) (protein)
chain: MKNRIDPELRAMLDMFPPLNLDDVQATRKAMEEAAQLTELPVDEEVVVSNRMVPGPEDNPYVRVRIYEPKEKIEKLPGLLWIHGGGYVLGAPEGDDLLCQRFVKEANCVVVSVDYRLAPEHPYPAPLEDCYAALQWFAKKVDELGVDASRIGVGGQSAGGGLTAALALLARDRKGPELCFQMPLYPMIDDKNNSPSSLEITGNLIWNHDLNEKGWSMYLDGKNGTDDVPVHAAPARATDLTNLPYTYTCVGQLDPFRDETLDYVKRLCQAGVDVEFHLYPGAYHGFETLNPAAAVSQRALAEYVGAVKHVLNREKVVERK
notes: as for B1
For the protein B4, in data set [1], the Km was determined as 50 ± 7 µM, the kcat is 760 ± 3.5 s⁻¹ and the kcat/Km is 1.52e+07 M⁻¹ s⁻¹. In data set [2], the Km came out at 57 ± 2 µM, the kcat was found to be 0.32 ± 0.005 s⁻¹ and the kcat/Km amounted to 5610 M⁻¹ s⁻¹.
